Data reported in patent publication US6191256A, “Recombinant factor VIII binding peptides” (Bayer Corporation, priority 1998, dated 2001).
One block for each substance: values may come before it.

Legend:
[1] = molecular target: T1, rFVIII (Homo sapiens, UniProt P00451); assay: column format binding assay, rFVIII mass per fraction by sandwich capture ELISA for the light chain; conditions: for Flow through ng: 10,000 ng rFVIII in 1:10 PPF injected, 5° C.; for ELISA results % total: Table 9, 0.5M CaCl2 fraction
T1 sequence (P00451 20-2351): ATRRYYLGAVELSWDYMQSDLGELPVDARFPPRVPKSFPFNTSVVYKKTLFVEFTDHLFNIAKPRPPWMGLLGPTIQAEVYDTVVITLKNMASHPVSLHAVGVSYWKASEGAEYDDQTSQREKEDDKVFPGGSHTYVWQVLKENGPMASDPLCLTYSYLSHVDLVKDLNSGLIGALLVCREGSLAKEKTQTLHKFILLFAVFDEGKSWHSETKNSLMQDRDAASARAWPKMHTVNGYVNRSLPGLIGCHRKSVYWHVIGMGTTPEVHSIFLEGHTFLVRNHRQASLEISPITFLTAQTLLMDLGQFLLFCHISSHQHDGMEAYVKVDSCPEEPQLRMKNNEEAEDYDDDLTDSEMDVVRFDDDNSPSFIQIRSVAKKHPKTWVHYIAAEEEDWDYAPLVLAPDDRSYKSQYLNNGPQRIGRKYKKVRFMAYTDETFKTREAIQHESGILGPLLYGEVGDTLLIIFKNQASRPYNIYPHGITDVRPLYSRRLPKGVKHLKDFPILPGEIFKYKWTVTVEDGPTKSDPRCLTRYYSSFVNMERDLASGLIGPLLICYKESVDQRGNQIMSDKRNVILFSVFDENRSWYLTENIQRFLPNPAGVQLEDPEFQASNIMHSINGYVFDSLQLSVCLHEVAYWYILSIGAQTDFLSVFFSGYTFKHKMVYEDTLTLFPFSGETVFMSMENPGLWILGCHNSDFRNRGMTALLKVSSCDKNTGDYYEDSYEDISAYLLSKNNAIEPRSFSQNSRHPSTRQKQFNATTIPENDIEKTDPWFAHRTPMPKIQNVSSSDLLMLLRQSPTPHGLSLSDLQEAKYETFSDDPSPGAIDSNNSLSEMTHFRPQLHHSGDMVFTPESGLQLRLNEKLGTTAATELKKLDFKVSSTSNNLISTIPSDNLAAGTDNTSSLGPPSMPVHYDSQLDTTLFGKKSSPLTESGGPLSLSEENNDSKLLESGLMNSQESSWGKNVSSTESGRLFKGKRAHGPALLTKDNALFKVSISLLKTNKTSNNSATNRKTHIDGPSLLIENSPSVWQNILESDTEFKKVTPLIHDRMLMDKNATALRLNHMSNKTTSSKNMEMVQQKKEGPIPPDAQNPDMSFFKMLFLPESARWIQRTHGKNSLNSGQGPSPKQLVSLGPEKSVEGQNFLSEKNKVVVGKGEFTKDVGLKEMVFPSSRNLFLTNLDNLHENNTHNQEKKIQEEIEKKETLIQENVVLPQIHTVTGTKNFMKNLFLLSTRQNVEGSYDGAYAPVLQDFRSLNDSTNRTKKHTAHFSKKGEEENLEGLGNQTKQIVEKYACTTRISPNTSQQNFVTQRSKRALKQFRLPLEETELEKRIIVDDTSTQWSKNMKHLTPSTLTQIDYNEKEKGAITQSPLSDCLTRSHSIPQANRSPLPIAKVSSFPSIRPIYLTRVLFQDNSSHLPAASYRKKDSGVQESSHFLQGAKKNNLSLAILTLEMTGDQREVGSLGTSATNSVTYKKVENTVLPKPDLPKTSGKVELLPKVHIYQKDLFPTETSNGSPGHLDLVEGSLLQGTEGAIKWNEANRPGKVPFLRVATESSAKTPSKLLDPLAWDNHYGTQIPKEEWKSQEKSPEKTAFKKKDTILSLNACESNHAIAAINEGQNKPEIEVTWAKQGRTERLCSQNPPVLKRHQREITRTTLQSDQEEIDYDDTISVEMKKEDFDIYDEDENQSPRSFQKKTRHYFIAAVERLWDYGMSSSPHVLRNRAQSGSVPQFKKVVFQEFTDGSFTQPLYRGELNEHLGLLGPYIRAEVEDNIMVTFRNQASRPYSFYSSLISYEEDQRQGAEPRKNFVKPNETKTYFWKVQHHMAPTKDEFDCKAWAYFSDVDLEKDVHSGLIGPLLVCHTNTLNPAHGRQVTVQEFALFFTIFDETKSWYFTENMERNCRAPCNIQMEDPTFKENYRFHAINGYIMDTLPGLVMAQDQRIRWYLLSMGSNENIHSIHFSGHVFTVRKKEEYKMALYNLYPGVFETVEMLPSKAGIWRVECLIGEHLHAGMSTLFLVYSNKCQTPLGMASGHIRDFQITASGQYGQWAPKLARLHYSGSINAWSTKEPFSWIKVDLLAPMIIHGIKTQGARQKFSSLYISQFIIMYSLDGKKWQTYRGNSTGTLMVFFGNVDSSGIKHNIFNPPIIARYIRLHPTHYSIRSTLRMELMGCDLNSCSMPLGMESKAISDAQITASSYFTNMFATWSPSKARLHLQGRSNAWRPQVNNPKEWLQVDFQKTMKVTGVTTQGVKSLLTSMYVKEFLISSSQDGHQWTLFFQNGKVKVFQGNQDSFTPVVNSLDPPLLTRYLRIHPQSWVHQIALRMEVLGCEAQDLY
T1 sequence (P00451 1668-2351 limits assumed): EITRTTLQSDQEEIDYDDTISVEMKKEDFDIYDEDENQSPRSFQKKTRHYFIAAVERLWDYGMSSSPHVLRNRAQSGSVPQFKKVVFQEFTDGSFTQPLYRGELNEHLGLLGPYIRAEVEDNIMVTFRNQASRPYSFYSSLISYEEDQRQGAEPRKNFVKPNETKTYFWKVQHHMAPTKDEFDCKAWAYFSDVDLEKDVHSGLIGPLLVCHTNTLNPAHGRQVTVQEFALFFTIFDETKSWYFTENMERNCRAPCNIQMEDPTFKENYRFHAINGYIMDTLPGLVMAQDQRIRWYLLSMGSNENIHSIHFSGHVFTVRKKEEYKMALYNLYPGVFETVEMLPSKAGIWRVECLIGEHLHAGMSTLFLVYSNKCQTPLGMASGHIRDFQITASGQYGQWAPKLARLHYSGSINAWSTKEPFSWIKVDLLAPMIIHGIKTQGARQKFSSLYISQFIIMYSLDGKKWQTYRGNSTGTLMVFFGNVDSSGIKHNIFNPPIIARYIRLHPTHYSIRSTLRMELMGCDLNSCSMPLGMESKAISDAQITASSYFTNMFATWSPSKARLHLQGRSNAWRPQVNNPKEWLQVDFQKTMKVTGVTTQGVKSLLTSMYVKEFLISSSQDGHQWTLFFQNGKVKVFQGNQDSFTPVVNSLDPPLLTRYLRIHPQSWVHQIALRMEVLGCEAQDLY
Experimental: (§1) Immunoassay on rFVIII using a sandwich capture ELISA for the light chain and activity assay using a chromogenic substrate (COATEST Factor VIII kit from diaPharma, Franklin, Ohio) were performed on a BIOMEK® automated liquid handling system from Beckman Instruments (Brea, Calif.). The monoclonal antibody for rFVIII light chain (known as C7F7), the ELISA assay standard (lot A70K019), and the control for the activity assay (lot A70A001 @ 140 IU/mL) were from the Bayer Corporation (Berkeley, Calif.). The standard for the activity assay was at 11.2 IU/mL (Bayer, Clayton, N.C.), calibrated against the MEGA 1 standard, which is a working standard used by American manufacturers for measuring factor VIII activity (21).
(§2) Additional confirmatory binding assay and performance of the discovered binding peptides in terms of total rFVIII and activity recovery was performed in a column chromatographic format on a microbore HPLC. The resins were packed into 0.4×5 cm columns (Thomson, Springfield, Va.) and tested on the MICHROM HPLC system (Michrom BioResources, Auburn, Calif.). The elution program for the trials utilized the following method. The column was pre-equilibrated with equilibration buffer (as above). A 1 mL aliquot of 1:10 PPF followed by 1 mL of rFVIII (10,000 ng) in 1:10 PPF were injected and allowed sufficient time to flow through the column using equilibration buffer. The column was then washed with step elutions of 0.5 M and 1.0 M CaCl2 in equilibration buffer. The column was exposed to equilibration buffer. Remaining protein was eluted with 2% by volume glacial acetic acid in water. Columns were kept at 5° C. during the chromatographic runs. For each 1 mL injection (equilibration buffer, 1:10 PPF and 10,000 ng rFVIII in 1:10 PPF), the chromatographic cycle was run for 45 minutes (injection, flow through, 0.5 M CaCl2, 1.0 M CaCl2, equilibration buffer, 2% acetic acid, equilibration buffer).
(§3) A Gilson FC204 fraction collector at the HPLC outlet collected individual eluates for further analysis. Each collection tube had 100 μL hSA added to it to stabilize the rFVIII. Fractions collected from the 2% acetic acid eluates were neutralized with 2 M Tris, pH 10.5 to bring the pH to neutrality. The fractions were analyzed for total protein by the integration of the absorbance at 280 nm, for rFVIII by immunoassay (sandwich capture ELISA), and for rFVIII activity by a chromogenic substrate assay.
Tables 5 and 6 present the results from the additional confirmatory binding assays using the column format. The chromatography method was run by injecting the samples at a flow rate of 865 μL/min (413 cm/hr). In order to provide a 10 minute residence time of sample in the column the flow was decreased to 17 μL/min (10 cm/hr) upon injection.
Following the incubation, the flow was set at 865 μL/min (413 cm/hr) for the step clutions of 0.5 M CaCl2, 1.0 M CaCl2, and 2% acetic acid. Results are expressed in terms of the total mass of rFVIII in each fraction, as determined by the sandwich capture ELISA assay for the rFVIII light chain. […] A control using a non-binding peptide sequence (IGF) is also shown for comparison--in this case, 95% of the rFVIII loaded to the column was collected in the flow through fraction. Additional controls with no

[2] = molecular target: T1, rFVIII; assay: confirmatory binding assay in filtration plate format using 14C-rFVIII; conditions: for 0.5M CaCl2 % total / 2% acetic acid % total / 2% acetic acid dpm / 0.5M CaCl2 dpm: 5 mg beads; for 0.5M CaCl2 dpm: 5° C.; for beads % total / beads dpm: remaining on beads after washes
Experimental: Confirmatory binding assays were performed in a filtration plate format using individual peptide sequences synthesized directly onto the TOYOPEARL AF amino 650 M resin, at a final substitution density of 0.1 mmole/g resin. A slurry of each individual peptide sequence was prepared using deionized water. A 100 μL volume of beads (corresponding to 5 mg) was loaded into each well of the filtration plate (MULTISCREEN Assay System, Millipore, Bedford, Mass.), in triplicate for each peptide sequence. Beads were washed with 20% ethanol and incubated overnight with equilibration buffer (20 mM imidazole, 10 mM
CaCl2, 0.105 M NaCl, pH 6.9). A 100 μL aliquot of ^14 C-rFVIII diluted in neat PPF to a final concentration of 20-30 nM was loaded into each well and incubated for 1 hour at 5° C. Filtrate (unbound ^14 C-rFVIII) was collected into a microtiter plate and transferred to liquid scintillation vials for dpm counting. Beads were washed sequentially with: 100 μL of equilibration buffer for 15 minutes, 200 μL of 0.5 M CaCl2 (in equilibration buffer), 200 μL of 1.0 M CaCl2 (in equilibration buffer), and 200 uL of 2% by volume glacial acetic acid in water, for 1 hour each at 5° C. Scintillation counting on the unbound ^14 C-rFVIII (plus equilibration buffer wash), salt and acid washes, as well as on the beads was then performed and the overall mass balance calculated.
Beads presenting the appropriate peptide sequence on the surface were placed in the filtration plate wells and incubated sequentially with equilibration buffer, ^14 C-rFVIII in PPF, equilibration buffer, 0.5 M CaCl2 wash, 1.0 M CaCl2 wash and 2% acetic acid wash. After each incubation, filtrate was collected in microtiter plates, and dpm counted on each
In Table 3, the ^14 C-rFVIII was loaded at 20 nM (in PPF) and the radiolabeling yield was at 3.0×10^15 dpm/mole. In Table 4, the ^14 C-rFVIII was loaded at 30 nM (in PPF) and the radiolabeling yield was at 5.0×10^15 dpm/mole.

[3] = molecular target: T1, rFVIII; assay: rFVIII activity recovery from peptide columns by chromogenic substrate assay (COATEST); type: biochemical; conditions: for 0.5M CaCl2 % total: activity recovery; for Flow through IU: rFVIII activity in fraction; for Activity results % total: Table 9, 0.5M CaCl2 fraction
Experimental: as §1, §2, §3
Tables 7 and 8 list the sequences for which activity recovery was determined by a chromogenic substrate assay (COASTEST kit, diaPharma, Franklin, Ohio). Chromatographc conditions are the same as described above for the results from Tables 5 and 6. It can be

[4] = Table 4, 14C-rFVIII 30 nM in PPF
[5] = Table 4, 14C-rFVIII 30 nM in PPF, 5.0 × 10^15 dpm/mole
[6] = Table 3, 14C-rFVIII 20 nM in PPF

0.5M CaCl2 ng ([1]; Table 6): 7154 ng
0.5M CaCl2 % total ([1]; Table 6): 97%
2% acetic acid % total ([1]; Table 6): 2%
2% acetic acid ng ([1]; Table 6): 181 ng
Flow through % total ([1]; Table 6): 0%
Total ng ([1]; Table 6): 7403 ng
Flow through ng ([1]; Table 6): 0 ng
ELISA results % total [1]: 97%
Total dpm ([2]; Table 4, 14C-rFVIII 30 nM): 3658 dpm
0.5M CaCl2 % total [2, 4]: 93%
2% acetic acid % total [2, 4]: 5%
2% acetic acid dpm [2, 4]: 176 dpm
0.5M CaCl2 dpm [2, 5]: 3414 dpm
beads % total ([2]; Table 4, 14C-rFVIII 30 nM): 2%
beads dpm ([2]; Table 4, 14C-rFVIII 30 nM): 68 dpm
0.5M CaCl2 IU ([3]; Table 8): 68.9 IU
2% acetic acid % total ([3]; Table 8): 0%
2% acetic acid IU ([3]; Table 8): 0.1 IU
Flow through % total ([3]; Table 8): 0%
Total IU ([3]; Table 8): 70.2 IU
0.5M CaCl2 % total ([3]; Table 8): 98%
Flow through IU ([3]; Table 8): 0.0 IU
Activity results % total [3]: 98%
Substance: 9 (FALPGR) [compound 9]

0.5M CaCl2 ng ([1]; Table 5): 5836 ng
0.5M CaCl2 % total ([1]; Table 5): 94%
2% acetic acid % total ([1]; Table 5): 1%
2% acetic acid ng ([1]; Table 5): 77 ng
Flow through % total ([1]; Table 5): 4%
Total ng ([1]; Table 5): 6225 ng
Flow through ng ([1]; Table 5): 228 ng
ELISA results % total [1]: 94%
Total dpm ([2]; Table 3, 14C-rFVIII 20 nM): 3764 dpm
0.5M CaCl2 % total [2, 6]: 85%
2% acetic acid % total [2, 6]: 11%
2% acetic acid dpm [2, 6]: 415 dpm
0.5M CaCl2 dpm ([2]; Table 3, 14C-rFVIII 20 nM in PPF, 3.0 × 10^15 DPM/mole): 3184 dpm
beads % total ([2]; Table 3, 14C-rFVIII 20 nM): 4%
beads dpm ([2]; Table 3, 14C-rFVIII 20 nM): 165 dpm
0.5M CaCl2 IU ([3]; Table 7): 40.6 IU
2% acetic acid % total ([3]; Table 7): 1%
2% acetic acid IU ([3]; Table 7): 0.4 IU
Flow through % total ([3]; Table 7): 0%
Total IU ([3]; Table 7): 42.5 IU
0.5M CaCl2 % total ([3]; Table 7): 96%
Flow through IU ([3]; Table 7): 0.0 IU
Activity results % total [3]: 96%
Substance: 7 (IRFYSE) [compound 7]

0.5M CaCl2 ng ([1]; Table 6): 8018 ng
0.5M CaCl2 % total ([1]; Table 6): 90%
2% acetic acid % total ([1]; Table 6): 1%
2% acetic acid ng ([1]; Table 6): 87 ng
Flow through % total ([1]; Table 6): 7%
Total ng ([1]; Table 6): 8863 ng
Flow through ng ([1]; Table 6): 641 ng
ELISA results % total [1]: 90%
Total dpm ([2]; Table 4, 14C-rFVIII 30 nM): 4096 dpm
0.5M CaCl2 % total [2, 4]: 95%
2% acetic acid % total [2, 4]: 3%
2% acetic acid dpm [2, 4]: 135 dpm
0.5M CaCl2 dpm [2, 5]: 3884 dpm
beads % total ([2]; Table 4, 14C-rFVIII 30 nM): 2%
beads dpm ([2]; Table 4, 14C-rFVIII 30 nM): 77 dpm
0.5M CaCl2 IU ([3]; Table 8): 48.3 IU
2% acetic acid % total ([3]; Table 8): 0%
2% acetic acid IU ([3]; Table 8): 0.09 IU
Flow through % total ([3]; Table 8): 2%
Total IU ([3]; Table 8): 50.3 IU
0.5M CaCl2 % total ([3]; Table 8): 96%
Flow through IU ([3]; Table 8): 0.8 IU
Activity results % total [3]: 96%
Substance: 13 (KAQETW) [compound 13]
